41 sequences from the nanobody polyreactivity screen of Harvey et al. (2022) can be followed below.

This series is described as follows: yeast display, Sf9 membrane polyspecificity reagent, FACS + sequencing; frameworks hold sequencing errors. The essentials: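 Polyreactivity labels are assigned by the sorting gate from which each nanobody was recovered. The gates were low and high (top ~1%), set on anti-HA fluorescence for expression and streptavidin fluorescence for reagent binding. Before sorting, galactose-induced (36–48 hours) yeast display cells were stained for 1 hour at 4 °C with 10% biotinylated, detergent-solubilized Sf9 membrane reagent.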
On to “QVQLVESGGGLVQAGGSLRLSCAASGSIFSQYAMGWYRQAPGKERELVAAISRSGGRTSYADSVKGRFTISRDNAKNTVYLQMNSLKPEDTAVYYCAARGPTNMGYWGQGTQVTVSS”, for which the “polyreactivity (PSR sort gate)” value was “high polyreactivity”.

“QVQLVESGGGLVQAGGSLRLSCAASGRTFFPYPRGCYRQAPGTDREFFAAITWSGGSTTYADSVKGRFTISRDNAKNTVYLQMNSLKPEDTAVYYCNAGRRRSYSYDYWGQGTQVTVSS”: the “polyreactivity (PSR sort gate)” value was “low polyreactivity”.

“QVQLVESGGGLVQAGGSLRLSCAASGFTFWLYSMGWYRQAPGKERELVAAISWSGGSTYYADSVKGRFTISRDNAKNTVYFQMNSMKPEDPAVYYCAAVKYVRCAEFYYWGQGTQVTVSS”: the “polyreactivity (PSR sort gate)” value is given as “high polyreactivity”.

For the sequence “QVQLVESGGGLVQAGGSLRLSCAASGSTFAYYAMGWYRQAPGKERELVAAITRSTGRTYYADSVKGRFTISRDNAKNTVYLQMNSLKPEDTAVYYCAKTYGYRQPGDYWGQGTLVTVSS”, the “polyreactivity (PSR sort gate)” value is “high polyreactivity”.

On to “QVQLVESGGGLVQAGGSLRLSCAASGSIFYTYAMGWYRQAPGKERELVAAISRSGGSTYYADSVKGRFTISRDNAKNTVYLQMNSLKPEDTAVYYCAARPPYRVGIVPLGRREYYWGQGTQVTVSS”, for which the “polyreactivity (PSR sort gate)” value is “high polyreactivity”.

On to “QVQLVESGGGLVQAGGSLRLSCAASGFIFRYNAMGWYRQAPGKERELVARISSGGSTNYADSVKGRFTISRDNAKNTVYLQMNSLKPEDTAVYYCAVKQYWYIWSGYGYDYWGQGTQVTVSS”, for which the “polyreactivity (PSR sort gate)” value is given as “high polyreactivity”.

For the sequence “QVQLVESGGGLVQAGGSLRLSCAASGSNFYFYAMGWYRQAPGKERELVAGITSSGASTYADSVKGRFTISRDNEKNTVYLQMNSLKPEDTAVYYCAAYYPLRKGYGYWGQGTQVTVSS”, the “polyreactivity (PSR sort gate)” value is given as “high polyreactivity”.

Regarding “QVQLVESGGGLVQAGGSLRLSCAASGITLLYYAMGWYRQAPGKERELVAVIDWSGGDTYYADSVKGRFTISRDNAKNTVYLQMNSLKPEDTAVYYCARGSRLVYRRSGFDYWGQGTQVTVSS”, the “polyreactivity (PSR sort gate)” value is on record as “low polyreactivity”.

Consider “QVQLVESGGGLVQAGGSLRLSCAASGSILGANVMGWYRQAPGKERELVASISKSGGNTFYADSVKGRFTISRDNAKNTVYLQMNSLKPEDTAVYYCAKDVLGGQITDGVGNDYWGQGTQVTVSS”, for which the “polyreactivity (PSR sort gate)” value was “low polyreactivity”.

Take “QVQLVESGGGLVQAGGTLRLSCAASGSTFTGNAMGWYRQAPGKERELVASISTGGSTNYADSVKGRFTISRDNAKNTVYLQMNSLKPEDTAVYYCAKRIRYNWTFDDWGQGTQVTVSS”: the “polyreactivity (PSR sort gate)” value is “low polyreactivity”.

“QVQLLESGGGLVQAGGSLRLSCAASVSTFLYYTMGWYRQATGKQRELVAAISDDGSTSYADSVKGRFTISRDNAKITVYLQMNSLKPEDTAVYYCAARFYHNRYTFYDFYTLYPYYYWGQGTQVTVSS”: the “polyreactivity (PSR sort gate)” value was “low polyreactivity”.

For “QVQLVESGGGLVQAGGSLRLSCAASGRTFWDYAMGWYRQAPGKERELVAAITGGITNYADSVKGRFTISRDNAKNTVYLQMNSLKPEDTAVYYCAVYYRRWFSRYDYWGQGTQVTVSS”, the “polyreactivity (PSR sort gate)” value is “low polyreactivity”.

With “QVQLVESGGGLVQAGGSLRLSCAASGYTIVSYAMGWERQAPGKERELVASIRWRGGRTYYADSVKGRFTISRDNAKNTVYLQMNSLKPEDTAVYYCAASTYYSPYVAHYGYWGQGTQVTVSS”, the “polyreactivity (PSR sort gate)” value is on record as “high polyreactivity”.

Take “QVQLVESGGGLVQAGGSLRLSCAASGSTFFIYAMGWYRQAPGKERELVAAITSGGTYADSVKGRFTISRDNAKNTVYLQMNSLKPEDTAVYYCNAGNNVVVDYDYWGQGTQVTVSS”: the “polyreactivity (PSR sort gate)” value is recorded as “low polyreactivity”.

Take “QVQLVESGGGLVQAGGSLRLSCAASGRTFWVNAMGWYRQAPGKERELVAAITSSVSSTYYADSVKGRFTISRDNAKNTVYLQMNSLKPEDTAVYYCAAGVGRGMYYWGQGTQVTVSS”: the “polyreactivity (PSR sort gate)” value is listed as “low polyreactivity”.

Take “QVQLVESGGGLVQAGGSLRLSCADSGRIFNGYGMGWYRQAPGKERELVATISSSGDSTYYADSVKGRFTISRDNAKNTVYLQMNSLKPEDTAVYYCAKRARYKFGYWGQGTQVTVSS”: the “polyreactivity (PSR sort gate)” value is on record as “high polyreactivity”.

With “QVQLVESGGGLVQAGGSLRLSCAASGFTLYPYAKGWYRQAPGKARELVAAISWSVGSTRYADSVKGRFTISRDNAKNTVYLQMNSLKPEDTAVYYCAARPHGRFSQLRVDWGQGTQVTVSS”, the “polyreactivity (PSR sort gate)” value is given as “low polyreactivity”.

Consider “QVQLVESGGGLVQAGGSLRLSCAASGSIFGYYAMGWYRQAPGKERELVAAISVSGGSTYYADSVKGRFTISRDNAKNTVYLQMNSLKPEDTAVYYCKKVQGSWRVPYYYWGQGTQVTVSS”, for which the “polyreactivity (PSR sort gate)” value is “high polyreactivity”.

In the case of “QVHLVESGGALVQAGGSLRLSCAASGRIFGGYTMGWYRQAPGKEREFVAAITSSGGSTYYADSVKGRFTISRDNAKNTVYLQMNSLKPEDTAVYYCAVDDYYYDYDYWGQGTQVTVSS”, the “polyreactivity (PSR sort gate)” value was “low polyreactivity”.

Regarding “QVQLVESGGGLVQAGGSLRLSCAASGSIFDRNAMGWYRQAPGKERELVAAISRSSGNTYYADSVKGRFTISRDNAKNTVYLQMNSLKPEDTAVYYCAAKPTYPKRYNYWGQGTQVTVSS”, the “polyreactivity (PSR sort gate)” value is reported as “high polyreactivity”.

Regarding “QVQLVESGGGLVQAGGILRLSCAASGSIFLYNALGWYRQAPGKERELVAAISKSGGSTYYADSVKGRFTISRDNAKNTVYLQMNSLKPEDTAVYYCAAGYGRLIRYGSDYDYWGQGTQVTVSS”, the “polyreactivity (PSR sort gate)” value is reported as “low polyreactivity”.

Consider “QVQLVESGGGLVQAGGSLRLSCAASGSIFYKYTMGWYRQAPGKERELVAAISRSGGSTYYADSVKGRFTISRDNAKNTVYLQMNSLKPEDTAVYYCATTRRVPGEYWGQGTQVTVSS”, for which the “polyreactivity (PSR sort gate)” value is given as “high polyreactivity”.

With “QVQLVESGGGLVQAGGSLRLSCAASGITFVLYAMGWYRQAPGKERELVAAITWRGGSTYYADSVKGRFTISRDNAKNTVYLQMNSLKPEDTAVYYCAAVPFTSYRQGDYWGQGTQVTVSS”, the “polyreactivity (PSR sort gate)” value was “low polyreactivity”.

Consider “QVQLVESGGGLVQAGGSLRLSCAASGSPFPYVMVWYRQAPGKERELVAAISQRTGSTYYADSVKGRFTISRDNAKNTVYLQMNSLKPEDTAVYYCAKPGYLRPSRYDYWGQGTQVTVSS”, for which the “polyreactivity (PSR sort gate)” value is listed as “high polyreactivity”.

Take “QVQLVESGGGLVQAGGSLRLSCAASGSIFWSNAMGWYRQAPGKEREFVAAITWSGDNTYYADSVKGRFTISRDNAKNTVYLQMNSLKPEDTAVYYCNTEWGLFYDWTVLHIYLHGYYYWGQGTQVTVSS”: the “polyreactivity (PSR sort gate)” value was “low polyreactivity”.

As for “QVQLVESGGGLVHAGGSLRLSCAASGFTFKENAMGWSRPAPGKERELVAAISSTGGSTYYADSVKGRFTISRDNATNNVYLQMHSLNPDDTAVYYCAASTYWYDGDYWGQGTQVTVSS”, the “polyreactivity (PSR sort gate)” value is “high polyreactivity”.

Regarding “QVQLVESGGGLVQAGGSLRLSCAASGSTFWWYAMGWYRQAPGKERELVAAISYSGSSTYYADSVKGRFTISRDNAKNTVYLQMNSLKPEDTAVYYCAADIQYYYNFYPGDYWGQGTQVTVSS”, the “polyreactivity (PSR sort gate)” value is recorded as “low polyreactivity”.

In the case of “QVQHVESGGGLVQAGGSLRLSCAASGSTFSLYAMGWSRQAPGKERELVAAIRGSGGSPYYADSVKGRFTISRDNAKNTVYLQMNTQTPEDSAVYYCAKKRYHGSNYGYDYWGQGTQVTVSS”, the “polyreactivity (PSR sort gate)” value is “high polyreactivity”.

For “QVQLVESGGGLVQAGGSLRLSCAASGSIFSFYAMGWYRQAPGKERELVAAISSSGGSTYYADSVKGRFTISRDNAKNTVYLKMNSLKPEDTAVYYCAARFAYGGGYWGQGTQVTVSS”, the “polyreactivity (PSR sort gate)” value is “high polyreactivity”.

Take “QVQLVESVGGLLQAGGSLRLSCADSGSTFTTNVMGWYRQAPGKERELVAAISKRGGSTFYADSVKGRFTISRDNAKNTVYRQMNSLKPEDTAVYYCKALRRGVRDPYGYWGQGTQVTVSS”: the “polyreactivity (PSR sort gate)” value is listed as “high polyreactivity”.

Take “QVQLVESGGGLVQAGGSLRFSCAASGRIIEQNAMGWYIQAPGKERELVATITRRGGRTYYADSVKGRFTISRDNAKNTVYLQMNSLKPEDTAVYYCNQVSYARGYDYWGQGTQVTVSS”: the “polyreactivity (PSR sort gate)” value is recorded as “high polyreactivity”.

Regarding “QVQLVESGGGLVQAGGSLRLSCAASGSTFYPYAMGWYIQAPGKERELVARISSDGSTYADSVKGRFTISRDNAKNTVYLQMNSLKPEDTAVYYCNADAGTGVGWWDDYDYWGQGTQVTVSS”, the “polyreactivity (PSR sort gate)” value is on record as “low polyreactivity”.

On to “QVQLVESGRGLVQAGGSLRLSCAASGRIFYNYAMGGYRQAPGKERELVAAISSSGGSTYFADSVKGRFTISRDNAKNTVYLQMNSLKPEDTAVYYCAVRKQYSGRYYRAYDYWGQGTQVTVSW”, for which the “polyreactivity (PSR sort gate)” value is “high polyreactivity”.

On to “QVQLVESGGGLVQAGGSLRLSCAASGSIFSANTMGWYRQEPGKEREFVAGITTSAGRTYYADSVKGRFTISRDNAKNTVYLQMNSLKPEDTAVYYCAARVWRSYNYWGQGTQVTVSS”, for which the “polyreactivity (PSR sort gate)” value was “high polyreactivity”.

“QVQLVESGGGLVQAGGSLRLSCAASGSTYLINAMGWYRQAPGNERELVAAISDSGGSTHYADSVKGRFTISRDHAINTVYLHMKSLNPEDTAVYYCAATIPTTLILYGYWGQGTQVTVSS”: the “polyreactivity (PSR sort gate)” value is on record as “low polyreactivity”.

As to “QVQLVESGGGLVQAGGSLRLSCAASGFTFTFNAMGWYRQEPGKEREFVAAITWSGGSTYYADSVKGRFTISRDNAKNTVYLQMNSLKPEDTAVYYCAARLYRSFTFNYWGQGTQVTVSS”, the “polyreactivity (PSR sort gate)” value is “high polyreactivity”.

Consider “QVQHVESGGGLVQAGGSLRLSCAASGRTFWTNALGWYRQAPGKEREFVGAISWRGASTFYADSVKGRFTISRDHAKNTVYLQMTSLKPEDTAVYDCAAQSRTRSFYGKFDSWGQGTQVTVSS”, for which the “polyreactivity (PSR sort gate)” value is given as “low polyreactivity”.

For the sequence “QVQLVESGGGLVQAGGSLRLSCAASGFTLAGYAMGWYRQAPGKERELVAAITSSGGSTFYADSVKGRFTISRDNAKNTVYLQMNSLKPEDTAVYYCAAKWAVVSGYGYWGQGTQVTVSS”, the “polyreactivity (PSR sort gate)” value was “high polyreactivity”.

As to “QVQLVESGGGLVQAGGSLRISCAASGSIYSAYVMGWYRQAPGKERELVSAITRSGGSTYYADSVKGRFTISRDNAKNTVYFQMNSLKPEDTAVYYCAVDYLLHYYSYIEDYWGQGTQVTVSS”, the “polyreactivity (PSR sort gate)” value is reported as “low polyreactivity”.

Turning to “QVQIVESGGGLVQAGGSLRLSCASSGIIFWPNAMGWYRQAPGKERELVASITSGGYTYYADYVKGRFTISRDNAKNTVYLQMNSLKPEDTAVYYCAAEWYPYGPKRYYWGQGTQVTVSS”, the “polyreactivity (PSR sort gate)” value is “low polyreactivity”.

“QVQLVESGGGLVQAGGSLRLSCAASGITFFNYAMGWYRQAPGKERELVAAISGGSTYYADSVKGRFTISRDNAKNTVYLQMNSLKPEDTAVYYCAARVASKYLVYRKRPSRFDYWGQGTQVTVSS”: the “polyreactivity (PSR sort gate)” value is given as “low polyreactivity”.
